Data from PMC3229523, “Identification of Lactoferricin B Intracellular Targets Using an Escherichia coli Proteome Chip” (PLoS ONE, 2011).
Ends that are not written are not given here. * marks the point of attachment. Biotin = O=C1N[C@H]2[C@H](CS[C@H]2CCCCC(=O)*)N1

Legend:
Assay in all cases: peptide or protein array; E. coli proteome chip: purified His-tagged proteins printed in duplicate on Fullmoon slides, blocked with 1% BSA; 10 nM N-terminal biotinylated LfcinB with 1% BSA, room temperature, 1 h; detected with DyLight 649-labeled streptavidin, ratio to DyLight 549-labeled anti-His antibody; ProCAT normalisation, local cut-off; triplicate chips
Conditions in all cases: both partners purified
YbbN = molecular target: T1, YbbN (E. coli K-12, UniProt P77395 1-284)
T1 construct: YbbN, E. coli K-12
T1 sequence (looked up): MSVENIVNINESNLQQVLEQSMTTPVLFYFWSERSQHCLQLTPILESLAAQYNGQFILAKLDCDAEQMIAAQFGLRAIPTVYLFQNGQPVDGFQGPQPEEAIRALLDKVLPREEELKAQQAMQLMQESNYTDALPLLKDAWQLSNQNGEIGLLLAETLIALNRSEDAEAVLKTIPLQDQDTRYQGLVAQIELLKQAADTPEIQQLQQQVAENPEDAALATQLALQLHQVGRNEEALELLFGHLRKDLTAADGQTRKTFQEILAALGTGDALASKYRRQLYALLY

SfmH = molecular target: T2, SfmH (E. coli K-12, UniProt P75715 25-327)
T2 construct: SfmH, E. coli K-12
T2 sequence (looked up): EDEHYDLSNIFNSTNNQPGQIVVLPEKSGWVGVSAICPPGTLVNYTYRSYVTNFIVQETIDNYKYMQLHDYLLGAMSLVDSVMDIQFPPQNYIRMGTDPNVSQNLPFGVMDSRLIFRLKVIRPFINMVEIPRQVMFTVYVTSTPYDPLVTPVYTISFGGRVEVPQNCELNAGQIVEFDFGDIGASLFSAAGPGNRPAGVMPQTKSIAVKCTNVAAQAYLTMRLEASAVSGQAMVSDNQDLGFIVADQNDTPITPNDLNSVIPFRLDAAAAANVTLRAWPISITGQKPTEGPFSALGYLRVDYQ

GlgS = molecular target: T3, GlgS (E. coli K-12, UniProt P26649 1-66)
T3 construct: GlgS, E. coli K-12
T3 sequence (looked up): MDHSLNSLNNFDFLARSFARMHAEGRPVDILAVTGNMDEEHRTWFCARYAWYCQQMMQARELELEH

CadA = molecular target: T4, CadA (E. coli K-12, UniProt P0A9H3 1-715)
T4 construct: CadA, E. coli K-12
T4 sequence (looked up): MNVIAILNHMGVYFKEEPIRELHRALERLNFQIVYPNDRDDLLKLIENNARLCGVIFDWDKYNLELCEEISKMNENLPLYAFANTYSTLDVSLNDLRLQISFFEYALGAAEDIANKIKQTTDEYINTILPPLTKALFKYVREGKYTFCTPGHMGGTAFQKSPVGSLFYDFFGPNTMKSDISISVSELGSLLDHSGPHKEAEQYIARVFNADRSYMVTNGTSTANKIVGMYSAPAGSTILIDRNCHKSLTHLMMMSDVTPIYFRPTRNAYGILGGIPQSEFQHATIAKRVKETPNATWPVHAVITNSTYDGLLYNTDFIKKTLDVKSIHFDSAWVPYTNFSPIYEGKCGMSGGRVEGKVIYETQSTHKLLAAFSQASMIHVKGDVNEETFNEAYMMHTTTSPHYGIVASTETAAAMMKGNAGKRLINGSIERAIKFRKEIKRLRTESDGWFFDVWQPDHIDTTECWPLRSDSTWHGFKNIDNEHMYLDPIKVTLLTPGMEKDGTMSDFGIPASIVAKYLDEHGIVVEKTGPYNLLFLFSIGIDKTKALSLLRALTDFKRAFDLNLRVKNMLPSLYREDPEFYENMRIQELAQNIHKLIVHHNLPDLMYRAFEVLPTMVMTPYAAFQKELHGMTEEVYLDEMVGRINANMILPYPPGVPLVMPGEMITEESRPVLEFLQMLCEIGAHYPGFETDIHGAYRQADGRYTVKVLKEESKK

BasR = molecular target: T5, BasR (E. coli K-12, UniProt P30843 1-222)
T5 construct: BasR, E. coli K-12
T5 sequence (looked up): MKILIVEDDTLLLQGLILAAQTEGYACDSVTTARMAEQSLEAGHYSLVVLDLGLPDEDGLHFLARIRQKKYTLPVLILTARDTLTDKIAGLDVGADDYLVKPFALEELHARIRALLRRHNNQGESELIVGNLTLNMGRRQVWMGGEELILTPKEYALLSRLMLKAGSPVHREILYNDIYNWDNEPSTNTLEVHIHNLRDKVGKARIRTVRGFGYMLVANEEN

YhgA = molecular target: T6, YhgA (E. coli K-12, UniProt P31667 1-292)
T6 construct: YhgA, E. coli K-12
T6 sequence (looked up): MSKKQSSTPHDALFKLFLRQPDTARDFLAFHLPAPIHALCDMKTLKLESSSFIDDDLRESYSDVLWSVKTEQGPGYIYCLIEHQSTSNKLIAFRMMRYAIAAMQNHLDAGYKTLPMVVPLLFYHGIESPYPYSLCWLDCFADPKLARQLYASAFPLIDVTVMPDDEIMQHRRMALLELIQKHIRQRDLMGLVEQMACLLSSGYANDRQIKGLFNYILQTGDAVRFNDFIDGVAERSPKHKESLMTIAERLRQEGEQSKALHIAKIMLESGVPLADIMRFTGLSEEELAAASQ

Measured: binding result

B1: N-terminal biotinylated Lactoferricin B (peptide, UniProt P24627 36-60, looked up)
peptide: Biotin-FKCRRWQWRMKKLGAPSITCVRRAF
modifications: ends and bridges not checked
notes: lactoferricin B (LfcinB), cationic antimicrobial peptide of 25 amino acids; also called biotinylated LfcinB; biotin-labeled LfcinB; source: bought: Kelowna Inc
binds: YbbN | SfmH | GlgS | CadA | BasR | YhgA
